From patent publication US8975044B2, “Polynucleotides encoding for frizzled-binding agents and uses thereof” (OncoMed Pharmaceuticals, Inc., priority 2008, dated 2015)

Assays:
PE13 breast tumor = PE13 breast tumor recurrence study; type: in vivo, Nod-Scid mice; settings: taxol 15 mg/kg twice per week + 18R5 20 mg/kg once per week vs taxol + control antibody; taxol stopped at day 70
Description: PE13 breast tumor recurrence study with 18R5 mAb: PE13 breast tumor cells were injected into Nod-Scid mice and allowed to grow until the tumors had reached approximately 100 mm^3. The animals were randomized into two groups (n=10) and given taxol (15 mg/kg, twice per week)+Control antibody (black squares) or the same dose of taxol+Anti-FZD 18R5 (gray open circles). Antibodies were dosed at 20 mg/kg once per week. Taxol treatments were stopped at day 70 and the antibody treatments continued.

OMP-PN13 cells = test: Tumorgenic potential of Muc16-positive cells sorted from 18R5-treated OMP-PN13 tumors; type: in vivo, NOD/SCID mice; settings: 75 cells per mouse, 10 mice; no tumor from Muc16+ cells, 7 of 10 from Muc16− cells
Description: OMP-PN13-bearing mice were treated with 18R5 according to the protocol described in Example 21. Mice were euthanized 12 days after initiation of the Ab treatment. Tumors were harvested and processed to obtain a single cell suspension using collagenase III to digest the tissues. Mouse stromal cells were stained with a biotinylated anti-H-2 Kd antibody and a biotinylated anti-CD45 antibody. They were then incubated with magnetic beads conjugated to streptavidin (Thermo MagnaBind) and depleted using a Dynal magnet. The resulting lin-depleted tumor cells were stained with an anti-Muc16 mAb detected with a PE-conjugated secondary Ab. Muc16− positive and Muc16− negative cells were sorted using an ARIA FACS machine ran by the DIVA software. Cells were re-injected subcutaneously in the left flank of NOD/SCID mice for comparison of their tumorgenic potentials. Each cell type was injected into 10 mice. Each mouse received 75 cells. Representative pictures of tumors resulting from the injection of Muc16− (upper panel) and Muc16+(lower panel) cells are shown in FIG. 52B. No tumor grew after injection of the Muc16+cells, while 7 of the 10 mice injected with the Muc16− cells developed tumors.

[1] = test system: OMP-C28 colon tumor xenografts; test: OMP-C28 colon tumor xenograft growth; type: in vivo, NOD/SCID mice; settings: 18R5 10 mg/kg IP twice weekly, single agent; p=0.02
Description: In another embodiment anti-FZD antibodies were analyzed for their ability to reduce the growth of OMP-C28 colon tumor xenografts. Dissociated human OMP-C28 cells (10,000 per animal) were injected subcutaneously into 6-8 week old male NOD/SCID mice. Tumor growth was monitored weekly and tumor measurements were initiated once tumors were palpable. On day 24 mice with average tumor volume of 129 mm^3 were randomized into 4 groups of 10 animals each. Animals were injected with either control antibody, or 18R5 IgG antibody (10 mg/kg), or irinotecan (7.5 mg/kg) or combination of both 18R5 and irinotecan. Administration of the antibodies and irinotecan was performed via injection into the intra-peritoneal cavity, twice weekly. Tumors were measured twice a week and tumor volume was determined using the formula ½(a×b^2); where a=length, and b=breadth. Data are expressed as mean and mean±S.E.M. Group means were compared using Student's two-tailed, unpaired t test.

ACTA2 = ACTA2 gene expression in treated OMP-PN4 tumors by microarray; type: in vivo, NOD/SCID mice; settings: 10 mg/kg once a week for 6 weeks; tumor stroma
Description: As described in Example 7 above, OMP-PN4 tumor-bearing NOD/SCID mice were treated with control Ab (LZ-1), 18R5, gemcitabine, or the combination of 18R5 and gemcitabine once a week for 6 weeks. The antibodies were administered at a concentration of 10 mg/kg. After they were harvested, the tumors from that experiment were analyzed for the expression of Wnt target genes at both the RNA and protein levels, using microarray and IHC, respectively.
Total RNA was extracted from the tumors, amplified, and subjected to microarray analysis. Total RNAs were amplified using the Ovation RNA Amplification System V2 (NuGEN, San Carlos, Calif.). Resulting amplified, antisense ss-cDNA was fragmented and biotinylated using the FL-Ovation cDNA Biotin Module V2 (NuGEN) for use on Affymetrix chips. Affymetrix HG-U133 plus 2 or MG 430 2.0 oligonucleotide microarrays were used in these experiments (performed at Almac Diagnostics, Durham, N.C.). […] The quality of the cDNA and the fragmented cDNA were assessed by spectrophotometer and the Bioanalyzer before the array hybridization. The scanned raw chip data were quantified and scaled using the GCOS software package (Affymetrix) and subjected to a comprehensive assessment of Gene Chip Quality Control recommended by Affymetrix to detect any chips defects and outliers, which were excluded from the subsequent data analysis. […]

B1: 18R5: human anti-FZD antibody; VH SEQ ID NO:10 (as 18R8), VL SEQ ID NO:14; binds FZD1, 2, 5, 7, 8 (antibody, V domains shown)
VH: EVQLVESGGGLVQPGGSLRLSCAASGFTFSHYTLSWVRQAPGKGLEWVSVISGDGSYTYYADSVKGRFTISSDNSKNTLYLQMNSLRAEDTAVYYCARNFIKYVFANWGQGTLVTVSS
VL: DIELTQPPSVSVAPGQTARISCSGDNIGSFYVHWYQQKPGQAPVLVIYDKSNRPSGIPERFSGSNSGNTATLTISGTQAEDEADYYCQSYANTLSLVFGGGTKLTVLG
modifications: 18R5/18R8 heavy chain variable region (VH); 18R5 light chain variable region (VL)
PE13 breast tumor
  tumor regression and recurrence: enhance the rate of tumor regression and to delay tumor recurrence
OMP-PN13 cells
  tumorgenicity of 18R5-induced Muc16+ cells: non-tumorgenic
[1]
  reduction in tumor growth: 40%
ACTA2
  ACTA2 expression: decreased levels of ACTA2 expression
